Experimental data reported in patent US20230131339A1, “EPI-X4 BASED PEPTIDES AND DERIVATIVES THEREOF” (Universitaet Ulm, priority 2020, published 2023).
Where two headings read alike, the source gives them in different places. Where a SMILES comes first, the peptide text is derived from it. Where no end group is shown, it is not given here. Side-chain parts run from the residue outwards. The star is where a group is joined. DOTA = O=C(O)CN1CCN(CC(=O)O)CCN(CC(=O)*)CCN(CC(=O)O)CC1; Stearoyl = CCCCCCCCCCCCCCCCCC(=O)*; Palmitoyl = CCCCCCCCCCCCCCCC(=O)*; Glu = glutamate linker

Assays:
CXCR4 [1] = target: T1, CXCR4 (Homo sapiens, UniProt P61073); test: 12G5-assay | IC50 (nM)
T1 construct: endogenous in cells; host or cells: SupT1 cells
Source text: (§1) Table printed on a drawing sheet, Figure 2
Title: A Truncated Palmitoylated-JM#21
Head of the field: 12G5-assay | IC50 (nM)
First copying reader's note: The table is the legend of the plot in panel A; the first column also carries the plot symbols, which are not copied.
Where the first naming reader finds the target: passage: Values determined by the competition assay represent the potency of a compound to compete with an antibody that specifically binds to the binding pocket (ECL2) of CXCR4

CXCR4 [2] = target: T1, CXCR4; test: 12G5-assay IC50 (nM)
Source text: as §1
Title: B Truncated Palmitoylated-JM#21 N-terminally modified
Head of the field: 12G5-assay IC50 (nM)
First copying reader's note: The table doubles as the legend of the antibody competition plot beside it; the plot symbols before the names are not copied.
Where the first naming reader finds the target: passage: compete with an antibody that specifically binds to the binding pocket (ECL2) of CXCR4

[3] = test system: CXCL12 induced migration of T-cells; test: Migration assay (transwell, Jurkat cells); assay type: cell-based
Description: For each peptide, three independent experiments were performed. The error bars refer to the standard deviation.
Migration assay. Migration assays were performed using 96-well transwell assay plates (Corning Incorporated, Kennebunk, Me., USA) with 5 μm polycarbonate filters. […] Next, 75 μL (0.5×10^5 cells) of Jurkat cells (in assay buffer), together with/without the compounds, were added into the upper chambers. After 4 h at 37° C. (5% CO2), 100 μL of the lower chambers were transferred to a fresh 96 V-well plate and analyzed with Cell-Titer-Glo® assay (Promega, Madison, Wis., USA). The percentage of migrated cells was calculated as described by Balabanian et al. (2005). In order to obtain the relative migration in %, the percentage of migrated cells were normalized to the CXCL12-only control.

[4] = s9, 8 h
Description: (§2) Further, the stability of peptides in human S9 liver fractions (in the presence of cofactors) was tested (FIG. 12). […] To simulate and predict hepatic metabolic clearance, peptides were added to human S9 liver fractions. […] For each peptide, three independent experiments were performed.
(§3) Stability assay in human S9 liver fractions. Pooled human liver S9 fractions were obtained from Thermo Fisher Scientific at a total protein concentration of 20 mg/ml. Fractions were stored in 25 μl aliquots at −80° C. For stability experiments, they were diluted to a final concentration of 0.5 mg/ml in Tris buffer. Cofactors (or buffer) were added immediately before start of the experiment (NADPH: 1 mM, UDPGA: 0.5 mM, GSH: 2.5 mM, PAPS: 0.05 mg/ml, Sigma Aldrich). The reaction was started by adding peptides or compounds at a concentration of 20 μM to the mixture and gentle agitation at 37° C. Determination of enzymatic stability was performed as described for plasma.

[5] = mouse, in vivo, iv
Source text: To do so, the labeled conjugate was intravenously injected into the tail vein of immunodeficient mice, followed by localization and quantification of radioactivity within the body using positron emission tomography (PET).

[6] = test system: CXCR4-tropic X4-HIV-1 (NL4-3); assay type: cell-based; details: CXCR4-tropic X4- (NL4-3)
[7] = test system: CXCL12 induced Ca2+-signalling; test: Ca++ signaling in BCR-ABL-transformed murine bone marrow cells; assay type: cell-based; details: 1 μM
Description: Fifth, it was shown that the peptide derivatives inhibit calcium-signaling. CXCL12 stimulation of CXCR4 expressing B-cells leads to a strong calcium-release. In the presence of CXCR4 antagonists this response is reduced.
For calcium measurement, 1×10^6 BCR-ABL-transformed murine bone marrow cells were incubated with 5 μg/mL of Indo-1 (Molecular Probes) and 0.5 μg/mL of pluronic F-127 (Molecular Probes) in Iscove's medium supplemented with 1% FCS (Pan Biotech) at 37° C. for 45 min. Cells were then washed by centrifugation and the cell pellets were resuspended in Iscove's medium with 1% FCS and treated with the EPI-X4 derivatives (1 μM or 0.5 μM) for 10 minutes at room temperature. Cells were pre-warmed for 5 minutes at 37° C. Calcium flux was assessed by FACS measurement at BD LSR Fortessa. After 30 seconds of baseline recording, CXCR4-dependent calcium signaling was determined by stimulating with 100 ng/ml of mouse SDF-1a (PeproTech).

[8] = Stability assay in human S9 liver fractions; details: with cofactors
Description: as §2, §3

[9] = target: T2, CXC chemokine receptor type 4 (CXCR4) (human, UniProt P61073 1-352); test: antibody competition assay (FIG. 5)
T2 construct: whole, on cells

[10] = target: T3, CXC chemokine receptor type 4 (CXCR4) (human, UniProt P61073 1-352); test: competition
T3 chain: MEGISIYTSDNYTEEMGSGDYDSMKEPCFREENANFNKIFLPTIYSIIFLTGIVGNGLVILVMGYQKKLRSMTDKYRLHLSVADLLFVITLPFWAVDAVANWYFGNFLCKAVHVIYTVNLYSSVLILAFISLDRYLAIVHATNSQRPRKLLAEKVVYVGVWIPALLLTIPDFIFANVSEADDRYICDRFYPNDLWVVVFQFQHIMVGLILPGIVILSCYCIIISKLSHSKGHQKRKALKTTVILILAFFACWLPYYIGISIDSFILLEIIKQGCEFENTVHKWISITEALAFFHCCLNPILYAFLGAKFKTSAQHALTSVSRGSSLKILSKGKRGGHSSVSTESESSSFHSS

[11] = target: T2, CXC chemokine receptor type 4 (CXCR4); test: cell-based or functional assay
[12] = target: T3, CXC chemokine receptor type 4 (CXCR4); test: competition
[13] = target: T3, CXC chemokine receptor type 4 (CXCR4); test: competition
[14] = target: T2, CXC chemokine receptor type 4 (CXCR4); test: 12G5-APC antibody competition on SupT1 cells, flow cytometry
Description: To the right of the diagrams, an assignment of the curves to the tested peptides is explained. […] Three independent experiments were carried out for each peptide in each assay. The error bars refer to the standard deviation.
Antibody competition assay. Competition of compounds with antibody binding was performed on SupT1 cells. For that cells were washed in PBS containing 1% FCS and 50,000 cells were then seeded per well in a 96 V-well plate. Buffer was removed and plates were precooled at 4° C. […] The antibody was used at a concentration closed to its determined Kd. 15 μl compounds were then added to the cells and 15 μl antibody immediately afterwards. Plates were incubated at 4° C. in the dark for 2 hours. Afterwards cells were washed twice with PBS containing 1% FCS and fixed with 2% PFA. Antibody binding was analyzed by flow cytometry (FACS CytoFLEX; Beckman Coulter®).

[15] = target: T3, CXC chemokine receptor type 4 (CXCR4); test: 12G5 antibody competition
[16] = target: T3, CXC chemokine receptor type 4 (CXCR4); test: 12G5 antibody competition
[17] = target: T4, CXC chemokine receptor type 4 (CXCR4) (human), P61073; test: cell-based or functional assay
T4 chain: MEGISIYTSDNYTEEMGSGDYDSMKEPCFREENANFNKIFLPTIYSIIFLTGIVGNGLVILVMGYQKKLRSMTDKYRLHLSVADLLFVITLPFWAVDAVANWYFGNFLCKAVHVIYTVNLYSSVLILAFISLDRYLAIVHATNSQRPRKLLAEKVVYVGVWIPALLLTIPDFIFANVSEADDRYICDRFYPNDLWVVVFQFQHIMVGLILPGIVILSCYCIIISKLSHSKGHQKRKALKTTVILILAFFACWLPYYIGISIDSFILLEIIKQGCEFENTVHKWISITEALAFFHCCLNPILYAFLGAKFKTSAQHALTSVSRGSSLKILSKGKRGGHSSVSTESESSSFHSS

[18] = target: T4, CXC chemokine receptor type 4 (CXCR4) …; test: 12G5-APC antibody competition on SupT1 cells, flow cytometry
[19] = target: T4, CXC chemokine receptor type 4 (CXCR4) …; test: competition; details: chains peptide; modification not given

Q: With CC(C)C[C@H](NC(=O)[C@@H](NC(=O)[C@@H]1CCCN1C(=O)[C@@H](NC(=O)[C@H](CO)NC(=O)[C@@H](NC(=O)[C@H](CCC(N)=O)NC(=O)[C@@H]1CCCN1C(=O)[C@@H](NC(=O)[C@H](CCCCN)NC(=O)[C@H](CCCCN)NC(=O)[C@@H](NC(=O)[C@H](Cc1ccc(O)cc1)NC(=O)[C@H](CCCNC(=N)N)NC(=O)[C@@H](NC(=O)[C@@H](N)CC(C)C)C(C)C)[C@@H](C)O)C(C)C)C(C)C)[C@@H](C)O)[C@@H](C)O)C(=O)O [EPIX4] (H-LVRYTKKVPQVSTPTL-OH; N-terminus and C-terminus assumed) as the molecule, how does the IC50 (CXCR4 [1]) read?
A: The IC50 was 1780 nM.

Q: What about the IC50 (CXCR4 [2]) of the same molecule?
A: Its IC50 is 1460 nM.

Q: What does the source list for “ILRWSRK(Glu-Ste)-NH2 (ILRWSRK([Glu-Stearoyl])-NH2) [JM #255]”?
A: inhibition of cell migration ([3]; 30 nM peptide): almost complete inhibition of cell migration; remaining activity in human S9 liver fractions after 8 hours [4]: more rapidly degraded compared to their N-terminally modified variants

Q: For “ILRWSRK(Glu-Ste)LPCVS (ILRWSRK([Glu-Stearoyl])LPCVS) [JM #198]”, which “remaining activity in human S9 liver fractions after 8 hours” value [4] is on record?
A: Its value is “more stable than its palmitoylated counterpart JM #143”.

Q: And the “remaining activity in plasma in vivo 4 hours post injection” value (mouse, in vivo, iv, 4 h)?
A: The value was “remained completely active”.

Q: What about the “remaining activity in plasma in vivo 8 hours post injection” value (mouse, in vivo, iv, 8 h) of the same molecule?
A: Its value is 33%.

Q: What about the “remaining activity in plasma in vivo after 24 hours” value (mouse, in vivo, iv, 24 h) of the same molecule?
A: Its value is “completely eliminated”.

Q: With “C-deferoxamine linked JM #122: JM #122 with deferoxamine conjugated via an additional C-terminal cysteine as (succinimido-propionyl-desferrioxamine) acetate (ILRWSRKLPSVS-{C(succinimido-propionyl-desferrioxamine)}; also: acetate salt)” as the molecule, how does the “biodistribution by PET” value [5] read?
A: Its value is “rapid (5 min post injection) absorption of the peptide by the kidneys and subsequent release into the bladder”.

Q: For CCCCCCCCCCCCCCCC(=O)N[C@@H](CCC(=O)O)C(=O)NCCCC[C@H](NC(=O)[C@H](CCCNC(=N)N)NC(=O)[C@H](CO)NC(=O)[C@H](Cc1c[nH]c2ccccc12)NC(=O)[C@H](CCCNC(=N)N)NC(=O)[C@H](CC(C)C)NC(=O)[C@@H](N)[C@@H](C)CC)C(N)=O [JM #192, ILRWSRK(Glu-Pal)-NH2] (H-ILRWSRK([Glu-Palmitoyl])-NH2; N-terminus assumed), which IC50 [6] is on record?
A: Its IC50 is 2 nM.

Q: What about the “reduction of CXCL12 induced calcium-signaling” value [7] of the same molecule?
A: The value was “almost completely blocked calcium-signaling”.

Q: What about the “inhibition of CXCL12 induced migration of T-cells (in words)” value [3] of the same molecule?
A: The value was “high activity”.

Q: And the “remaining activity in plasma in vivo 4 hours post injection” value (mice, i.v. tail vein, 4 hours post injection)?
A: Its value is “completely lost”.

Q: What about the “remaining activity in human S9 liver fractions after 2 hours” value ([8]; 2 hours) of the same molecule?
A: Its value is “faster inactivation”.

Q: And the “remaining activity in human S9 liver fractions after 8 hours” value ([8]; 8 hours)?
A: Its value is “more rapidly degraded compared to their N-terminally modified variants”.

B1: JM#206 (peptide)
peptide: ILRWSRKLPCVSK(DOTA)
notes: JM#21 with DOTA; also called DOTA-K-JM#21
Q: What does the source list for B1?
A: binding result [9]: binds; IC50 [10]: 206 nM

B2: JM#207 (peptide)
peptide: ILRWSRKLPSVSK(DOTA)
notes: JM#122 with DOTA; also called DOTA-K-JM#122
Q: Which results are given for B2?
A: binding result [9]: binds; IC50 [10]: 207 nM

B3: WSC02 (peptide)
peptide: IVRWSKKVPCVS
Q: With B3 as the molecule, how does the “IC50, X4-HIV-1 inhibition assay” value [11] read?
A: Its value is 310 nM.

Q: And the IC50 [12]?
A: The IC50 was 254 nM.

Q: What about the IC50 [10] of the same molecule?
A: The IC50 was 413 nM.

Q: What about the IC50 [13] of the same molecule?
A: Its IC50 is 274 nM.

Q: And the IC50 [14]?
A: The IC50 was 350 nM.

B4: JM#21 (peptide)
peptide: ILRWSRKLPCVS
Q: What does the source list for B4?
A: fold effectiveness against WSC02, AKT signaling [11]: ~10 fold; fold more effective X4-HIV-1 inhibition than EPI-X4 [11]: ~100 fold; IC50 [12]: 211 nM; IC50 [10]: 358 nM; IC50 [13]: 147 nM

B5: JM#114 (peptide)
peptide: ILRWSRKLP-NH2
Q: Which “IC50, HIV inhibition assay” value [11] does the source give for B5 here?
A: Its value is greater than 150 nM.

Q: And the IC50 [15]?
A: Its IC50 is 232 nM.

Q: What about the IC50 [16] of the same molecule?
A: The IC50 was 268 nM.

B6: JM#191 (peptide)
peptide: ILRWSRKK-NH2
modifications: not fully specified (residue 8)
Q: For B6, which IC50 [16] is on record?
A: Its IC50 is 3 nM.

Q: And the IC50 [14]?
A: The IC50 was 1 nM.

Q: And the “fold more effective binding than EPI-X4” value [14]?
A: The value was greater than 2000 fold.

Q: What about the “fold more effective than WSC02” value [14] of the same molecule?
A: Its value is roughly 300 fold.

B7: JM#193 (peptide)
peptide: ILRWSRKLK([Glu-Palmitoyl])-NH2
Q: For B7, which IC50 [16] is on record?
A: Its IC50 is 3 nM.

B8: EPI-X4 (peptide)
peptide: LVRYTKKVPQVSTPTL
modifications: not checked
Q: Which results are given for B8?
A: IC50, X4-HIV-1 inhibition assay [17]: 8630 nM; reduction of AKT phosphorylation at 10 µM [17]: 40%; IC50 [18]: 2500 nM; IC50 [19]: 2140 nM
